This passage reports EC50 of peptide results from patent US20230077100A1 (published 2023).

Assay [1] concerns the target T1, HPV16 E6 peptide on HLA-A*02:01 (human).
T1 peptide: TIHDIILECV
The experiment in a line: peptide titration on T2 cells, E:T 1:1, overnight, intracellular IFN-γ; full-length, on cells.

Assay [2] addresses T1, HPV16 E6 peptide on HLA-A*02:01. The experiment in a line: peptide titration on APCs, E:T 1:1, overnight, intracellular IFN-γ in CD8+ TCR-T cells; full-length, on cells.
For assay [3] the target is unchanged. The experiment in a line: peptide titration on APCs, E:T 1:1, overnight, intracellular IFN-γ in CD4+ TCR-T cells; full-length, on cells.

B1: E202 TCR (TCR, V domains shown)
Valpha: AQTVTQSQPEMSVQEAETVTLSCTYDTSESDYYLFWYKQPPSRQMILVIRQEAYKQQNATENRFSVNFQKAAKSFSLKISDSQLGDAAMYFCAYRDSRGSTLGRLYFGRGTQLTVWP
Vbeta: DVKVTQSSRYLVKRTGEKVFLECVQDMDHENMFWYRQDPGLGLRLIYFSYDVKMKEKGDIPEGYSVSREKKERFSLILESASTNQTSMYLCASSLWGRKNTEAFFGQGTRLTVV
In assay [1], B1 displayed an EC50 of peptide of 0.045 µg/mL.

B2: E203 TCR (TCR, V domains shown)
Valpha: LAKTTQPISMDSYEGQEVNITCSHNNIATNDYITWYQQFPSQGPRFIIQGYKTKVTNEVASLFIPADRKSSTLSLPRVSLSDTAVYYCLALSMDSSYKLIFGSGTRLLVRP
Vbeta: DAGVIQSPRHEVTEMGQEVTLRCKPISGHDYLFWYRQTMMRGLELLIYFNNNVPIDDSGMPEDRFSAKMPNASFSTLKIQPSEPRDSAVYFCASSLAQRSAPEAFFGQGTRLTVV
With B2, the EC50 of peptide in assay [2] amounted to 0.00104 µg/mL; in assay [3] it was 0.0176 µg/mL.

B3: E205 TCR (TCR, V domains shown)
Valpha: TQLLEQSPQFLSIQEGENLTVYCNSSSVFSSLQWYRQEPGEGPVLLVTVVTGGEVKKLKRLTFQFGDARKDSSLHITAAQPGDTGLYLCAGVSARLMFGDGTQLVVKP
Vbeta: SAVISQKPSRDICQRGTSLTIQCQVDSQVTMMFWYRQQPGQSLTLIATANQGSEATYESGFVIDKFPISRPNLTFSTLTVSNMSPEDSSIYLCSAVGGPKVPGAEAFFGQGTRLTVV
For the molecule B3, the EC50 of peptide in assay [2] was found to be 0.000917 µg/mL; in assay [3] it was 0.0104 µg/mL.
